What was measured:
VWF = VWF (Homo sapiens, UniProt P04275); experiment: VWF binding in the presence or absence of ristocetin (FIG. 7)
[1] = system: VWF-GPIb binding (plasma VWF, isolated platelets); experiment: Ristocetin-induced platelet agglutination test (RIPA); type: cell-based, human
Description: Platelet-poor plasma (PPP; source of plasma VWF) was prepared by centrifugation of citrated whole blood at 300 × g for 10 min to obtain platelet rich plasma (PRP) and further centrifugation of the PRP fraction at 1700 × g for 7 min. Isolated platelets (3 × 10^8/ml) suspended in platelet wash buffer (4.3 mM K2HPO4, 4.3 mM Na2HPO4, 24.3 mM NaH2PO4, 113 mM NaCl, 5.5 mM D-glu cose, and 10 mM theophylline, pH 6.5) were centrifuged at 1500 × g for 7 min. The washed platelets were subsequently resuspended at the same concentration in modified Tyrode’s buffer (10 mM Hepes, 12 mM NaHCO3, 137 mM NaCl, 2.7 mM KCI and 5 mM glucose, pH 7.3) containing calcium (1 mM), magnesium (1 mM) and apyrase (0.02 U ml^-1) (ADPase activity). Isolated platelets (150, 300 µL at 3 × 10^8/ml) and platelet poor plasma (50 µl) were incubated with 2, 2.5, 4, 5, 40 and 80 µg ml^-1 scFv A1 and the corresponding concentration of control scFv, or Tyrode’s buffer was used to neutralise any other aggregation mechanisms beside the VWF A1-GPlbα interaction. Platelet agglutination in response to 0.75 mg mL^-1 ristocetin (Helena Biosciences, Gateshead, UK) and in the presence of the αIIbβ3 (GPIIb/IIIa) blocker Integrilin was performed for 10 min on an AggRam system from Helena Laboratories, USA

[2] = system: thrombus formation / platelet deposition; experiment: Thrombus formation on collagen type I in stenosis channels (SRG versus constant shear); type: cell-based, human; conditions: for Thrombus formation: 15 minutes of blood flow
Excerpt: In-house designed PDMS microfluidic chips (FIG. 1A) contained channels of 52 µm height with a footprint of 300 µm x 46 mm (used in FIG. 1) or 300 µm x 17 mm. Selected channels incorporated a semi-circular stenotic section of various lengths (600 µm, 1000 µm or 2000 µm diameter), creating 80% lumen reduction. Chips were manufactured as previously reported (Westein et al. Proceedings of the National Academy of Sciences of the United States of America. 2013 Jan 22;110(4):1357-62). The produced PDMS chips were sealed with cover slips by hydrophobic interaction and coated with collagen by perfusion of collagen solution followed by static incubation at RT for at least 1 hr. Channels were rinsed with PBS and blocked with 2% BSA. Wall shear rates of the input flow for these microchannels were approximated from volumetric flow rates by using the equation, γ = 6Q/wh2. Herein, γ is the wall shear rate (s^-1), Q the volumetric flow rate (mls^-1), w the channel with (cm) and h the channel height (cm).
Citrated whole blood was incubated with DiOC6 (0.5 µg ml^-1) (Sigma-Aldrich Co, St. Louis, MO, USA) and drawn through microfluidic channels by a programmable syringe pump (Legato 130, KD Scientific, USA). Time-lapse z-stack images of platelet deposition were captured in multiple track, resonant scanning mode, using a Nikon A1R confocal microscope system. Platelet deposition was recorded over time (2 frames per minute) for up to 20 minutes and quantified in ImageJ using a Z-projection of the acquired signal.

Mechanism of VWF binding (dependence on conformation) (VWF): conformational-dependent binding
B1: scFv A1: single chain antibody combining variable heavy chain of mAb CR1 with variable light chain of mAb CR2; VH SEQ ID NO: 11, VL SEQ ID NO: 10 (antibody, V domains shown)
VH: QVQLQQPGAELVRPGASVKLSCKASGYSFTNYWMSWVKQRPGQGLEWIGMIHPSDSDTRLNQKFKDKATLTVDKSSSTAYMQLSSPTSEDSAGLLLCKKFEGWLPVLLGPRHHSHSLLS
VL: DIELTQSPASLAVSLGQSYRASCKSVSTSGYSYMHWNQQKPGQPPRLLIYLVSNLESGVPARFSGSGSGTDFTLNIHPVEEEDAATYYCQHIRELTRSEGDQAEINR
modifications: scFv linker; Mouse
Ristocetin-induced platelet agglutination ([1]; plasma VWF preincubated with scFv A1 and ristocetin prior to platelet binding): minor inhibitory effect
Ristocetin-induced agglutination of isolated platelets ([1]; scFv A1 up to 80 µg ml^-1, ristocetin 0.75 mg ml^-1, plasma VWF present): did not result in delayed or reduced agglutination
Thrombus formation ([2]; 2000 s^-1 constant shear): no effect
Thrombus formation ([2]; SRGs (187-1,500 s^-1)): inhibited thrombus formation
Thrombus formation ([2]; SRGs (300-2,000 s^-1)): inhibited thrombus formation
Inhibition of thrombus formation ([2]; scFv A1 2.5 µg ml^-1): absent
Inhibition of thrombus formation ([2]; scFv A1 5 µg ml^-1): showed inhibition
Relative thrombus growth (ratio of intensity in the last frame over the first frame) ([2]; scFv A1 5 µg ml^-1, SRG, 1,500 s^-1 in stenosis apex, control 1.58±0.22, p<0.001): 1.2±0.09
Relative thrombus growth (ratio of intensity in the last frame over the first frame) ([2]; scFv A1 5 µg ml^-1, SRG, 2,000 s^-1 in stenosis apex, control 1.85±0.28, p<0.0001): 1.17±0.07
Relative thrombus growth (ratio of intensity in the last frame over the first frame) ([2]; scFv A1 5 µg ml^-1, constant shear 1,500 s^-1, 10 minutes, other value of the pair 1.48±0.16): 1.62±0.2
Relative thrombus growth (ratio of intensity in the last frame over the first frame) ([2]; scFv A1 5 µg ml^-1, constant shear 2,000 s^-1, 10 minutes, other value of the pair 2.11±0.23): 1.9±0.36
Effect on platelet deposition ([2]; scFv A1 5 µg ml^-1, constant shear, straight channel sections): no effect
Inhibition of thrombus formation ([2]; scFv A1 10 µg ml^-1): showed inhibition
